Legend:
HLA-A*0201 = biological target: T1, HLA-A*0201 (Homo sapiens, UniProt P04439, D140Y/D185E/D98H/E176V/E277Q/G131W/G231S/I119V/I121R/I166T/I218V/L300P/L318F/N151K/N90K/P208A/P217A/Q86G/Q94H/R138H/R169H/T345S); test: Affinity of the peptide to HLA-A*0201 measured on T2 cell line (FACS, anti-HLA-A2 labelling); assay type: binding; conditions: for binding to HLA-A*0201 / affinity to HLA-A*0201 compared with the peptide 1A9V: Example 3, FIG. 4, T2 cells; for peptide concentration inducing 20% of expression of the HLA-A*0201: T2 cells
T1 construct: human tumoral cell T2 which expresses the HLA-A*0201 molecule, but which is TAP1/2 negative; endogenous in cells; host or cells: T2 cells (human, TAP1/2 negative)
Excerpt: The experimental protocol is similar to the one that was validated for peptides presented by the HLA-A*0201 (Tourdot et al., A general strategy to enhance immunogenicity of low-affinity HLA-A2.1-associated peptides: implication in the identification of cryptic tumor epitopes. Eur J Immunol. 2000 December; 30 (12): 3411-21). Affinity measurement of the peptides is achieved with the human tumoral cell T2 which expresses the HLA-A*0201 molecule, but which is TAP1/2 negative and incapable of presenting endogenous peptides.
(§1) T2 cells (2.10^5 cells per well) are incubated with decreasing concentrations of peptides from 100 μM to 0.1 μM in a AIMV medium supplemented with 100 ng/μl of human β2m at 37° C. for 16 hours. Cells are then washed two times and marked with the anti-HLA-A2 antibody coupled to PE (clone BB7.2, BD Pharmagen).
The analysis is achieved by FACS (Guava Easy Cyte).
(§2) For each peptide concentration, the geometric mean of the labelling associated with the peptide of interest is substracted from background noise and reported as a percentage of the geometric mean of the […] labelling obtained for the reference peptide HIV pol 589-597 at a concentration of 100 μM. The relative affinity is then determined as follows: relative affinity=concentration of each peptide inducing 20% of expression of HLA-A*0201/concentration of the reference peptide inducing 20% of expression of HLA-A*0201. A2. Solubilisation of Peptides
The experimental protocol was similar to the one that was validated for peptides presented by the HLA-A*0201 (Tourdot et al., A general strategy to enhance immunogenicity of low-affinity HLA-A2.1-associated peptides: implication in the identification of cryptic tumor epitopes. Eur J Immunol. 2000 December; 30 (12): 3411-21).
as §1, with “were” for “are”
The analysis was achieved by FACS (Guava Easy Cyte).
as §2, with “was subtracted” for “is substracted”
The experimental protocol, materials and methods correspond to those outlined in Example 3, with the only difference that the above mentioned antigenic peptides were used.

β/A2/DR3 mice = test: ELISPOT-IFNγ assay on splenocytes of vaccinated β/A2/DR3 mice; assay type: in vivo, mouse; conditions: as compared to IL13RA2-H-vaccinated animals (group 2)

affinity to HLA-A*0201 compared with the peptide 1A9V (HLA-A*0201)	peptide concentration inducing 20% of expression of the HLA-A*0201 (HLA-A*0201)	Sequence	binding to HLA-A*0201 (HLA-A*0201)	T cell responses in the ELISPOT-IFNγ assay after vaccination (β/A2/DR3 mice)
		CLYTFLIST [IL13RA2-H2, reference compound]	do not bind to or show much lower affinity	
higher affinity	4.4 µM	FLPFGFILV [IL13RA2-B]	bind strongly	improved T cell responses
	100 UM	WLPFGFILI [IL13RA2-H, reference compound]	do not bind to or show much lower affinity	
higher affinity		YLYTFLIST [IL13RA2-B2]	bind strongly	

From patent US12447201B2, “Immunogenic compounds for cancer therapy” (priority 2016, dated 2025)
